Laboratory results published in article PMC13542264.

Experiments:
[1] = target: gephyrin, endogenous in mouse brain (mouse (endogenous in brain)) (UniProt Q8BUV3); assay: non-reducing SDS-PAGE and Western blot; brain lysates of mice perfused with NEM-containing PBS; SDS sample buffer with 5 mM DTT or without reductant; shows only multimers that survive SDS
[2] = target: His-gephyrin, rat gephyrin P1, wild type, full length (rat); assay: SEC; analytical Superose 6 increase 5/10, 4 °C, 50 mM Tris/HCl, 300 mM NaCl pH 7.4; protein reduced with 1 mM TCEP, also the oxidised peak collected and re-reduced
[3] = target: GCN4-GlyR, GCN4 receptor model for the glycine receptor β subunit; assay: co-sedimentation; sedimentation assay of in vitro phase separation: proteins mixed in 25 mM Tris pH 7.4, 150 mM NaCl, 10 min 25 °C, 17,000 x g 10 min 4 °C; pellet and supernatant on Coomassie gels; gephyrin oxidised or reduced

Row | stoichiometry N [2] | percent of gephyrin in the pellet fraction [3] | Substance | fractional abundance of multimeric gephyrin [1]
1 | – | – | gephyrin, endogenous in mouse brain (from UniProt Q8BUV3 1-769) (natural protein) | 20%
2 | 6 | 60% | His-gephyrin, rat gephyrin P1, wild type, full length (natural protein) | –
